Here are results for 1 molecule from patent US20140186344A1 (TRUSTEES OF BOSTON UNIVERSITY, published 2014).

Usually Kd stands for the concentration at which binding is half-saturated. Read a low Kd as tighter binding.

The target in the experiment “mouse Dear (Dual …)” is T1, mouse Dear (Dual Endothelin-1/Angiotensin II Receptor) (mouse, UniProt Q2QKR2 1-127).
T1 construct: Endogenous protein in mouse kidney membranes and embryos was used for the antibody work; also called mouse receptor polypeptide; mouse Dear polypeptide
T1 sequence: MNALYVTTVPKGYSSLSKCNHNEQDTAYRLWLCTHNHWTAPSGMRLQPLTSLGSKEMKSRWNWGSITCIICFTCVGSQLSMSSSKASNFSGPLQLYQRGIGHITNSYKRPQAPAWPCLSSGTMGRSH
The experiment can be described thus: 125I-ET-1 binding to membranes of Cos-1 cells expressing mouse Dear.

In experiment [1] the target is T2, Dahl S Dear S44/M74 variant (rat Dual Endothelin-1/Angiotensin II Receptor) (rat (Dahl S/JRHsd), UniProt D3ZGZ6 1-127).
T2 construct: It was assayed as membranes of transiently transfected Cos1 cells, and as rat kidney membranes on blots; also called Dahl S receptor; Cos1-S
T2 chain: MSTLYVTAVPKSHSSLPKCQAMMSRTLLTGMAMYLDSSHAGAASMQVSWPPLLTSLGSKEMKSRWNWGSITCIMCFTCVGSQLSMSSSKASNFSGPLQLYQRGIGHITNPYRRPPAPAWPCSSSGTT
The experiment can be described thus: saturation radioligand binding, Cos1 membranes; KH, high affinity binding site; the column head says nM but paragraph 132 gives this value in pM. Here is the method:
(§1) Binding of [¹²⁵I]Tyr⁴-angiotensin II and [¹²⁵I]Tyr¹³-endothelin-1 to COS-1 membranes was performed by a rapid filtration method (32, 50). Briefly, [¹²⁵I]Tyr⁴-angiotensin II (0.25˜6.5 nM) or [¹²⁵I]Tyr¹³-endothelin-1 (0.045˜1.46 nM) was incubated with membranes (100 μg) for 20 min at 37° C. in 100 μl buffer A (5 mM MgCl₂, 0.2 mM EDTA, 10 mg/ml BSA, 10 mM Hepes, pH7.4). Binding reactions were terminated by the addition of 1 ml ice-cold buffer A and immediately filtered through a Whatman GF/C filter (presoaked overnight at 4° C. in 10 mg/ml BSA) and subsequently washed with 15 ml ice-cold buffer A. Specific binding was determined as the difference between the total radioactivity bound to membranes and the radioactivity bound to blanks containing 1 μM AngII or 1 μM ET-1. The dissociation constant (Kd) and maximum ligand-binding sites (Bₘₐₓ) were determined using Hill plot analysis (55). Hill coefficient values (h) were calculated from the relationship ln [B/(Bₘₐₓ−B)]=h ln [free Radioligand]−ln Kd. […] The data were best fit by two affinity states determined by Scatchard plot analysis; KH and KL designate the Kd for high- and low-affinity states of the receptor, respectively (44). Most results are expressed as the mean±SE (standard error) from three to five independent experiments.

Experiment [2] deals with T3, Dahl R Dear S44P/M74T variant (rat Dual Endothelin-1/Angiotensin II Receptor) (rat (Dahl R/JRHsd), UniProt D3ZGZ6 1-127).
T3 construct: It was assayed as membranes of transfected Cos1 cells and as kidney membranes on blots; also called Dahl R receptor; Cos1-R
T3 chain: T2 chain with S44P, M74T
Described as above. As to the method: as §1

In experiment [3] the target is T2, Dahl S Dear S44/M74 variant (rat Dual …). The experiment can be described thus: saturation radioligand binding, Cos1 membranes; comparison of KH. Here is the method: as §1
The target is the same in experiment [4]. The experiment can be described thus: saturation radioligand binding, Cos1 membranes; KL, low affinity binding site; the column head says nM, and the unit is doubtful. Here is the method:
as §1

Experiment [5] addresses T3, Dahl R Dear S44P/M74T variant (rat Dual …). Described as above. Here is the method: as §1

Numbering of substitutions follows the chain as printed. No end group written: not given here. *: point of attachment. 125I = [125I]*

B1: [125I]Tyr13-endothelin-1 (peptide, UniProt P05305 53-73, looked up)
peptide: CSCSSLMDKECVY(125I)FCHLDIIW
modifications: ends and bridges not checked
notes: mature; Radiolabelled ligand; also called ET-1
Turning to B1, in the experiment with mouse Dear (Dual …), the binding result is given as “binds”. In addition, the Kd in experiment [1] was found to be 4.42 pM; in experiment [2], 12 pM; in experiment [4], 450 pM; in experiment [5], 836 pM. The “fold increased affinity compared to the Dahl R Dear S44P/M74T variant” value in experiment [3] worked out at 3 fold.
